Each substance was assayed against Du156.12 (assay: ELISA).

With VRC01 Heavy chain: I30T as the substance, how does the EC50 read?
Its EC50 is 0.063 µg/mL.

With VRC01 Heavy chain: R61Q as the substance, how does the EC50 read?
Its EC50 is 0.086 µg/mL.

How did the EC50 turn out when VRC01 Heavy chain: K52N was run?
The EC50 was 0.056 µg/mL.

VRC01 Heavy chain: P62K was tested. Which EC50 did it give?
The EC50 was 0.066 µg/mL.

VRC01 Heavy chain: V73T was tested. Which EC50 did it give?
The EC50 was 0.097 µg/mL.

Which EC50 does the source give for VRC01 Heavy chain: T33Y here?
The EC50 was 0.048 µg/mL.

Which EC50 does the source give for VRC01 Light chain: Y30S here?
The EC50 was 0.196 µg/mL.

Which EC50 does the source give for VRC01 Heavy chain: R53N here?
The EC50 was 0.063 µg/mL.

Which EC50 does the source give for VRC01 Heavy chain: A56G here?
The EC50 was 0.101 µg/mL.

Which EC50 does the source give for VRC01 Heavy chain: V57T here?
Its EC50 is 0.164 µg/mL.

With VRC01 Heavy chain: Y74S as the substance, how does the EC50 read?
Its EC50 is 0.071 µg/mL.

What follows are substances tested against Du156.12 (assay: ELISA; deglycosylated).

For Deglycosylated VRC01, which EC50 is on record?
Its EC50 is 0.05 µg/mL.

What follows are substances tested against HXBc2 (assay: ELISA; deglycosylated).

With Deglycosylated VRC01 as the substance, how does the EC50 read?
Its EC50 is 0.045 µg/mL.
